B1: OAS1 (parent)
chain: LQLGEGVEFDVLPAFDALGQLTGG

Variants of: B1
Assay: protein stability index of a GFP-peptide fusion (GPS, HEK-293T) (PSI 1-6); higher = more stable
Details: c terminus: a fixed tail appended
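Note: lentivirally expressed fusions sorted by FACS into six bins by GFP to DsRed ratio, PSI derived from sequencing read proportions per bin multiplied by bin number.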

Variant	protein stability index
LQLGEGVEFDVLPAFDALGQLDGG [T22D]	1.97
LQLGEGVEFDVLPAFDALGQLAGG [T22A]	3.87
LQLGEGVEFDVLPAFDALGQLCGG [T22C]	2.22
LQLGEGVEFDVLPAFDALSQLTGG [G19S]	1.54
LQLGEGVEFDVLPAFDALCQLTGG [G19C]	2.11
LQLGEGVEFDVLPAFDALKQLTGG [G19K]	2.3
LQLGEGVEFDVLPAFDALTQLTGG [G19T]	2.01
LQLGEGVEFDVLPAFDALFQLTGG [G19F]	1.76
LQLGEGVEFDVLPAFDALYQLTGG [G19Y]	1.84
LQLGEGVEFDVLPAFDALEQLTGG [G19E]	1.61
LQLGEGVEFDVLPAFDALQQLTGG [G19Q]	1.61
LQLGEGVEFDVLPAFDALHQLTGG [G19H]	1.98
LQLGEGVEFDVLPAFDALNQLTGG [G19N]	2
LQLGEGVEFDVLPAFDALVQLTGG [G19V]	1.45
LQLGEGVEFDVLPAFDALDQLTGG [G19D]	2.91
LQLGEGVEFDVLPAFDALAQLTGG [G19A]	1.77
LQLGEGVEFDVLPAFDALLQLTGG [G19L]	2.67
LQLGEGVEFDVLPAFDALPQLTGG [G19P]	1.79
LQLGEGVEFDVLPAFDALGNLTGG [Q20N]	2.28
LQLGEGVEFDVLPAFDALGFLTGG [Q20F]	1.79
LQLGEGVEFDVLPAFDALGGLTGG [Q20G]	1.82
LQLGEGVEFDVLPAFDALGCLTGG [Q20C]	1.29
LQLGEGVEFDVLPAFDALGILTGG [Q20I]	2.06
LQLGEGVEFDVLPAFDALGHLTGG [Q20H]	2.94

Variant	protein stability index
LQLGEGVEFDVLPAFDALGTLTGG [Q20T]	1.76
LQLGEGVEFDVLPAFDALGKLTGG [Q20K]	1.9
LQLGEGVEFDVLPAFDALGYLTGG [Q20Y]	2.09
LQLGEGVEFDVLPAFDALGLLTGG [Q20L]	1.02
LQLGEGVEFDVLPAFDALGELTGG [Q20E]	2.02
LQLGEGVEFDVLPAFDALGPLTGG [Q20P]	1.78
LQLGEGVEFDVLPAFDALGDLTGG [Q20D]	2.65
LQLGEGVEFDVLPAFDALGMLTGG [Q20M]	1.82
LQLGEGVEFDVLPAFDALGSLTGG [Q20S]	1.77
LQLGEGVEFDVLPAFDALGVLTGG [Q20V]	2.01
LQLGEGVEFDVLPAFDALGRLTGG [Q20R]	1.51
LQLGEGVEFDVLPAFDALGQETGG [L21E]	2.5
LQLGEGVEFDVLPAFDALGQYTGG [L21Y]	1.51
LQLGEGVEFDVLPAFDALGQGTGG [L21G]	2.36
LQLGEGVEFDVLPAFDALGQATGG [L21A]	2.22
LQLGEGVEFDVLPAFDALGQNTGG [L21N]	2.32
LQLGEGVEFDVLPAFDALGQDTGG [L21D]	3.43
LQLGEGVEFDVLPAFDALGQKTGG [L21K]	3.12
LQLGEGVEFDVLPAFDALGQVTGG [L21V]	2.22
LQLGEGVEFDVLPAFDALGQITGG [L21I]	2.91
LQLGEGVEFDVLPAFDALGQPTGG [L21P]	2.9
LQLGEGVEFDVLPAFDALGQQTGG [L21Q]	3.62
LQLGEGVEFDVLPAFDALGQHTGG [L21H]	1.68
LQLGEGVEFDVLPAFDALGQSTGG [L21S]	2.06

Variant	protein stability index
LQLGEGVEFDVLPAFDALGQTTGG [L21T]	1.89
LQLGEGVEFDVLPAFDALGQFTGG [L21F]	2.53
LQLGEGVEFDVLPAFDALGQCTGG [L21C]	3.05
LQLGEGVEFDVLPAFHALGQLTGG [D16H]	2.26
LQLGEGVEFDVLPAFQALGQLTGG [D16Q]	2.29
LQLGEGVEFDVLPAFCALGQLTGG [D16C]	1.34
LQLGEGVEFDVLPAFAALGQLTGG [D16A]	1.79
LQLGEGVEFDVLPAFIALGQLTGG [D16I]	3.52
LQLGEGVEFDVLPAFPALGQLTGG [D16P]	2.46
LQLGEGVEFDVLPAFTALGQLTGG [D16T]	1.99
LQLGEGVEFDVLPAFSALGQLTGG [D16S]	1.07
LQLGEGVEFDVLPAFKALGQLTGG [D16K]	1.81
LQLGEGVEFDVLPAFRALGQLTGG [D16R]	1.31
LQLGEGVEFDVLPAFDAIGQLTGG [L18I]	1.26
LQLGEGVEFDVLPAFDATGQLTGG [L18T]	2.48
LQLGEGVEFDVLPAFDANGQLTGG [L18N]	2.17
LQLGEGVEFDVLPAFDAWGQLTGG [L18W]	3.14
LQLGEGVEFDVLPAFDAFGQLTGG [L18F]	1.14
LQLGEGVEFDVLPAFDAYGQLTGG [L18Y]	2.13
LQLGEGVEFDVLPAFDAEGQLTGG [L18E]	3.1
LQLGEGVEFDVLPAFDARGQLTGG [L18R]	2.79
LQLGEGVEFDVLPAFDAAGQLTGG [L18A]	3.35
LQLGEGVEFDVLPAFDAGGQLTGG [L18G]	3.58
LQLGEGVEFDVLPAFDACGQLTGG [L18C]	2.62

Variant	protein stability index
LQLGEGVEFDVLPAFDASGQLTGG [L18S]	2.38
LQLGEGVEFDVLPAFDADGQLTGG [L18D]	3.47
LQLGEGVEFDVLPAFDAMGQLTGG [L18M]	1.66
LQLGEGVEFDVLPAFDAVGQLTGG [L18V]	2
LQLGEGVEFDVLPAFDAQGQLTGG [L18Q]	2.36
LQLGEGVEFDVLPAFDTLGQLTGG [A17T]	2.6
LQLGEGVEFDVLPAFDYLGQLTGG [A17Y]	2.48
LQLGEGVEFDVLPAFDMLGQLTGG [A17M]	2.14
LQLGEGVEFDVLPAFDSLGQLTGG [A17S]	1.84
LQLGEGVEFDVLPAFDGLGQLTGG [A17G]	2.01
LQLGEGVEFDVLPAFDQLGQLTGG [A17Q]	1.61
LQLGEGVEFDVLPAFDWLGQLTGG [A17W]	3.13
LQLGEGVEFDVLPAFDDLGQLTGG [A17D]	2.14
LQLGEGVEFDVLPAFDRLGQLTGG [A17R]	2.05
LQLGEGVEFDVLPAFDNLGQLTGG [A17N]	2.28
LQLGEGVEFDVLPAFDHLGQLTGG [A17H]	1.76
LQLGEGVEFDVLPAFDPLGQLTGG [A17P]	2.41
LQLGEGVEFDVLPAFDFLGQLTGG [A17F]	3.94
LQLGEGVEFDVLPAFDILGQLTGG [A17I]	1.53
LQLGEGVEFDVLPAFDVLGQLTGG [A17V]	2.86
LQLGEGVEFDVLPAFDCLGQLTGG [A17C]	2.01
LQLGEGVEFDVLPAFDLLGQLTGG [A17L]	1.9

From the supplement of paper PMC10567573
